Article PMC11019291

Biological target: SARS-CoV-2 nucleocapsid protein (N protein) (SARS-CoV-2, UniProt P0DTC9)
Test: SERS (surface-immobilized aptamer)
Settings: protein: recombinant; tags: C-terminal His6 (pET26); N-terminal PelB signal and vector residues

B1: anti-N DNA aptamer (ssDNA)
DNA: AAAAACGCGCGTATTCCTTAGGGGCACCGCTACACGCGCG
modifications: 5'-thiol
B1: binds.
